# Results: PMC4545359
# Target: T1, CRP-His6 (cAMP receptor protein) (Vibrio cholerae C6706) (UniProt O34015)
# T1 sequence: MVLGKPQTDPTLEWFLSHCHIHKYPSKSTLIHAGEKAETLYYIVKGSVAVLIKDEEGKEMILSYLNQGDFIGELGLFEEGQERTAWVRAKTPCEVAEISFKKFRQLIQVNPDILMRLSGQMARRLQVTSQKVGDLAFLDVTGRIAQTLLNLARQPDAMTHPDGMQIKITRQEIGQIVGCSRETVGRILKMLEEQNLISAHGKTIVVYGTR
# Experiment: EMSA
# Conditions: 10 mM Tris pH 7.5, 1 mM EDTA, 100 mM KCl, 0.1 mM DTT, 5% glycerol, 0.01 mg/ml BSA; CRP 11 ng/ul, promoter DNA 2.5 ng/ul, 75 ng NS DNA; 1 h at room temperature …
sequence,measurement,value
CAGTGGATTAGCGTATGGACACGGCTACGTTTCCGCAGTGGAAAACGGTGTCGCCGAAGGACGTGTCACCTTGTGTAAATTTGCCGCTAACGGCACTGGAAAAAAAAACACTCACTGTGGCGCGATTCAATAC (double strand) [non-specific control 133 bp fragment (NS)],binding,no binding
